# Target: VEGF165 (UniProt P15692)
# Test: cell-based or functional assay
# Chain of VEGF165 (P15692 other isoform, or with tags, fused parts or gaps limits assumed): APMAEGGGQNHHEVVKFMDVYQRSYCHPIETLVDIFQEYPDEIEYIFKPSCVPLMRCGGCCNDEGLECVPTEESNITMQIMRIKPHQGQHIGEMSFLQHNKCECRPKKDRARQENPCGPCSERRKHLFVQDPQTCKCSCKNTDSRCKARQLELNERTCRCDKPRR
substance,measurement,value
C-terminal fragment of the NOV protein (amino acids 188 to 357) (from UniProt P48745 188-357),"HUAEC cell proliferation induced by 2 ng/ml VEGF165 (crystal violet, OD 595 nm)",200 ng/mL

# Reference: patent publication US20070059314A1
